Results from patent publication US20260070984A1 (Boehringer Ingelheim, published 2026).
Residue numbers refer to the chain shown, from its start.

B1: Chimeric 814E10 (antibody, V domains shown)
VH: QIQLQQSGPELVKPGASVKISCKASGYTFTSYYIQWVKQRPGQGLEWIGWIYPGDGTTNYNENFKGKTTLTADKSSSTVYMLLSSLTSEDSAVYFCARYGLVPFDYWGQGTTLTVSS
VL: DIQMTQTTSSLSASLGDRVTISCSASQDIINYLNWYQQKPDGTVKLLIYSTSSLHSGVSLRFSGSGSGTDYSLTISNLEPEDVATYYCHQYSQLPYTFGGGTKLEIK
notes: Mouse variable domains in human IgG4Pro (Ser228Pro) backbone; also called 814E10 in human IgG4Pro backbone
B2: Chimeric 701C1 (antibody, V domains shown)
VH: EVQLQQSGPELVKPGASVKMSCKASGYTFTSYVIHWVKQKPGQGLEWIGYIDPSNDDTKYNEKFKGKATLTSDKSSSTAYMELSSLTSEDSAVYYCAREAYYGGLYGMDYWGQGTSVTVSS
VL: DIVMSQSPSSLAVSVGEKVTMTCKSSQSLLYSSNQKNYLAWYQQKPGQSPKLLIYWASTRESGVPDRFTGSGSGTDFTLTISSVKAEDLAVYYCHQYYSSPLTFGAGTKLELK
notes: Mouse variable domains in human IgG4Pro (Ser228Pro) backbone; also called 701C1 in human IgG4Pro backbone
B3: Chimeric 709A6 (antibody, V domains shown)
VH: QVTLKESGPGILQPSQTLSLTCSFSGFSLSTSGMGVSWIRQPSGKGLEWLTHIYWDDDKRYNPSLKSRLTISKDTSRNQVFLEITSVDTADTATYFCARSSQGLYSSYDYWGQGTTLTVSS
VL: DIVLTQSPASLAVSLGQRATISCRASESVDIYGISFLHWYQQKPGQPPKHLIYRASNLDSGIPARFSGSGSRTDFTLTINPVETDDVATYYCQQSNKDPLTFGAGTKLELK
notes: Mouse variable domains in human IgG4Pro (Ser228Pro) backbone; also called 709A6 in human IgG4Pro backbone
B4: Chimeric 313C12 (antibody, V domains shown)
VH: EVQLVESGGGLVKPGGSLKLSCAASGFTFSDYGMHWVRQTPEKGLEWIAYINSDSNTIYYADTVKGRFTISRDNARKTLYLQMTSLRSEDTAMYYCSPLVAPDYWGQGTTLTVSS
VL: DIVMTQSQKFMSTTVGDRVSITCKASQNVGTAVAWYQQKPGQSPKLLIYSVSNRYTGVPDRFTGSGSGTDFTLTISNMQSEDLADYFCQQYSSYPFTFGAGTKLELK
notes: Mouse variable domains in human IgG4Pro (Ser228Pro) backbone; also called 313C12 in human IgG4Pro backbone
B5: Chimeric 803E6 (antibody, V domains shown)
VH: EVKLVESEGGLVQPGSSMKLSCTASGFTFSDYYMAWVRQVPEKGLEWVANINYDGFNTYYLDSLKSRFIISRDNAKNILYLQMSSLKSEDTATYYCARGGYWSLYFDYWGQGTTLTVSS
VL: DIVMTQSPSSLTVTAGEKVTMSCKSSQSLLHSGNQKNYMTWYQQKPGQPPKLLIYWASTRESGVPDRFTGSGSGTDFTLTISSVQAEDLAVYYCQNDYSYPLTFGAGTKLELK
notes: Mouse variable domains in human IgG4Pro (Ser228Pro) backbone; also called 803E6 in human IgG4Pro backbone
B6: Chimeric 708E4 (antibody, V domains shown)
VH: QIQLQQSGPELVKPGASVKISCKASGYTFTDYYLNWVKQRPGHGLEWIGWIYPGSSDTKHNENFKGKATLTVDTYSSTAYMQLGSLTSEDSAVYFCTRYSNFFFDYWGQGTTLTVSS
VL: DIVMTQSQKFLSTSVGDRVRVTCKASQNVVTYVAWYQQKPGQSPKSLIYSASYRYSGVPDRFTGSGSGTYFTLTINNVQFEDLAEYFCQQYHSYPYTFGGGTKLEIK
notes: Mouse variable domains in human IgG4Pro (Ser228Pro) backbone; also called 708E4 in human IgG4Pro backbone
B7: Chimeric 701E9 (antibody, V domains shown)
VH: QVQLQQSGPELVKPGASVKLSCKASGYTFIDYTIHWVKQSPGQGLEWIGWIFPGSTNDTKYNDKFKGKATMTADKSSSTAYMQLSSLTSEDSAVYFCARYRTDFDYWGQGTTLTVSS
VL: DIQMTQSPSSLSASLGERVSLTCRASQEISGYLSWLQQKPDGTIKRLIYAASTLDSGVPKRFSGSRSGSDYSLTISSLESEDFADYYCLQYASYPLTFGAGTKLELK
notes: Mouse variable domains in human IgG4Pro (Ser228Pro) backbone; also called 701E9 in human IgG4Pro backbone
B8: Chimeric 811G3 (antibody, V domains shown)
VH: QIQLQQSGPEVVKPGASVKISCKASGYTFTDYYINWVKQRPGQGLEWIGWIYPGGGHTKYNEKFKGEATLTVDTSSRTAYMQLSSLTSEDSAVYFCARYSNYYFDFWGHGTTLTVSS
VL: B7 VL with L15P, A50V, S93N, L96Y, A100G, L106I
notes: Mouse variable domains in human IgG4Pro (Ser228Pro) backbone; also called 811G3 in human IgG4Pro backbone
B9: Chimeric 414A12 (antibody, V domains shown)
VH: QVQLQQPGAELVKPGASVKLSCKASGHTFTSNWIHWVKQRPGQGLEWIGEIDPSDSYTYYNQKFKGKATLTVDKSSSTAYMQLSSLTSEDSAVYSCACPGRNSNFAYWGQGTTLTVSS
VL: DILMTQSPSSMSVSLGDTVSITCHASQGINNNIGWLQQKPGKSFKGLIYHKSNLEDGVPSRFSGSGSGADYSLTISSLESEDFADYYCVQYAQFPYTFGGGTKLEIK
notes: Mouse variable domains in human IgG4Pro (Ser228Pro) backbone; also called 414A12 in human IgG4Pro backbone
B10: Chimeric 306E6 (antibody, V domains shown)
VH: EVQLQQSGPELVKPGSSVKISCKASGYTFTDYYVNWVKQSHGKSLEWFGDIHPNSGDTTYNQKFKDKATLTVDKSSSTAYMELRSLTSEDSAVYYCARRRYDYDGFAYWGQGTLVTVSA
VL: EIVMTQAAFSNPVTLGTSASISCRSSKSLLHRNGITYLYWYLQKPGQSPQLLIYEMSNLASGVPDRFSSSGSGTDFTLRISRVEAEDVGVYYCGQNLEFPLTFGAGTKLELK
notes: Mouse variable domains in human IgG4Pro (Ser228Pro) backbone; also called 306E6 in human IgG4Pro backbone
B11: Chimeric 502H1 (antibody, V domains shown)
VH: QVTLKESGPGILQPSQTLSLTCSFSGFSLSTSGMGVTWIRKPSGQGLEWLAHIFWDGDKRYNPSLKSRLTISKDSSSNQVFLMITGVGTADAATYYCARYYYFDYGYAIDYWGQGTSVTVSS
VL: B10 VL with E1D, S10Y, E55Q, T74A, G94A, F99L
notes: Mouse variable domains in human IgG4Pro (Ser228Pro) backbone; also called 502H1 in human IgG4Pro backbone
B12: Chimeric 307A3 (antibody, V domains shown)
VH: B10 VH with S16A, S55N, D57G, T58I, D66G, T69S
VL: B10 VL with S69G
notes: Mouse variable domains in human IgG4Pro (Ser228Pro) backbone; also called 307A3 in human IgG4Pro backbone
B13: 701C1 (mouse IgG1 backbone) (antibody, V domains shown)
VH: B2 VH
VL: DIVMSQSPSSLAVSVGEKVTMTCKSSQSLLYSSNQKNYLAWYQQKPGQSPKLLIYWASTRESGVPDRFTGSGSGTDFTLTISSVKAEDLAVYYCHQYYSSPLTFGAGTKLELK
B14: 709A6 (mouse IgG1 backbone) (antibody, V domains shown)
VH: B3 VH
VL: B3 VL
B15: 803E6 (mouse IgG1 backbone) (antibody, V domains shown)
VH: B5 VH
VL: B5 VL
B16: 701E9 (mouse IgG1 backbone) (antibody, V domains shown)
VH: B7 VH
VL: B7 VL
B17: 811G3 (mouse IgG1 backbone) (antibody, V domains shown)
VH: B8 VH
VL: B7 VL with L15P, A50V, S93N, L96Y, A100G, L106I
B18: 414A12 (mouse IgG1 backbone) (antibody, V domains shown)
VH: B9 VH
VL: B9 VL
B19: 502H1 (mouse IgG1 backbone) (antibody, V domains shown)
VH: B11 VH
VL: B10 VL with E1D, S10Y, E55Q, T74A, G94A, F99L
B20: 307A3 (mouse IgG1 backbone) (antibody, V domains shown)
VH: B10 VH with S16A, S55N, D57G, T58I, D66G, T69S
VL: B10 VL with S69G

target: T1, recombinant human PD-1 (human, UniProt Q15116 25-167, limits assumed); test: SPR, ProteOn XPR36
T1 construct: Soluble recombinant protein used in SPR; also called PDCD1; purified recombinant human PD-1
T1 sequence (Q15116 25-167 limits assumed): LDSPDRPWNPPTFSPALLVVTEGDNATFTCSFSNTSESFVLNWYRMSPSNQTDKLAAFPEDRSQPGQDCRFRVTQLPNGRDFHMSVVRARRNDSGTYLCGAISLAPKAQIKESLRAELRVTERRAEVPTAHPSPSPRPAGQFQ
Protocol: Kinetics and binding affinities were measured using the ProteOn™ XPR36 (Biorad, Hercules, CA) surface plasmon resonance optical biosensor using material generated from transient transfection following single column purification.

Binder	Kd	koff	kon
B1	1.85 nM	0.000149 s⁻¹	80700 M⁻¹ s⁻¹
B2	13 nM	0.000305 s⁻¹	23400 M⁻¹ s⁻¹
B3	5.52 nM	0.000483 s⁻¹	87400 M⁻¹ s⁻¹
B4	0.859 nM	5.77e-05 s⁻¹	67100 M⁻¹ s⁻¹
B5	5.02 nM	0.00053 s⁻¹	106000 M⁻¹ s⁻¹
B6	8.08 nM	0.000348 s⁻¹	43100 M⁻¹ s⁻¹
B7	1.62 nM	0.000143 s⁻¹	88300 M⁻¹ s⁻¹
B8	9.14 nM	0.000801 s⁻¹	87700 M⁻¹ s⁻¹
B9	1.5 nM	0.000269 s⁻¹	180000 M⁻¹ s⁻¹
B10	56.4 nM	0.00765 s⁻¹	136000 M⁻¹ s⁻¹
B11	6.39 nM	0.000349 s⁻¹	54700 M⁻¹ s⁻¹
B12	63.5 nM	0.0074 s⁻¹	116000 M⁻¹ s⁻¹

target: human PD-1 expressed on cells (human, UniProt Q15116 25-288); test: cell-based or functional assay
Sequence (Q15116 25-288): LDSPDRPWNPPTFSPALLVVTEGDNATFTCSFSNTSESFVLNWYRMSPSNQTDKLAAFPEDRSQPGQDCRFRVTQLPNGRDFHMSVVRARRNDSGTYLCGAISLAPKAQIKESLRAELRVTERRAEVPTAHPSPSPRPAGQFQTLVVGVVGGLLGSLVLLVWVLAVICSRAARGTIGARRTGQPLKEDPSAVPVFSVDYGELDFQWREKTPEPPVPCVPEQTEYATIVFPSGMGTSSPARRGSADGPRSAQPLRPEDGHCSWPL

Binder	Emax Values (%), inhibition of NFAT activity	IC50 Values (nM), inhibition of NFAT activity
B13	53.2%	1.69 nM
B14	29.8%	0.04 nM
B15	48.3%	0.38 nM
B16	46%	0.22 nM
B17	44.5%	0.14 nM
B18	45%	0.39 nM
B19	48.9%	0.34 nM
B20	42.6%	1.03 nM
